Measured values from patent publication US20110085970A1 (published 2011).

T1: human O8E (B7-H4) expressed on cells (human, UniProt Q7Z7D3 25-282)
T1 construct: Full length O8E on transfected HEK, CHO and SKOV3 cells, or endogenous on SKBR3 and ZR-75 cells and in human tumour biopsies; also called B7S1; B7x
T1 sequence: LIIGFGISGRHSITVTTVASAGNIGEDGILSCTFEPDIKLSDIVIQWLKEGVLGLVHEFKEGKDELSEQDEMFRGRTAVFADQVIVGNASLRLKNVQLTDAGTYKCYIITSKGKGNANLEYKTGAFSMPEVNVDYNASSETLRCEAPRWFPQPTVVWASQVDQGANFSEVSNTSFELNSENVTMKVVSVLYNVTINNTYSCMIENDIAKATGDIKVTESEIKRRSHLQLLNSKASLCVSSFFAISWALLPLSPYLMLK

T2: Recombinant Penta-B7H4 protein with a C-9 tag (human, UniProt Q7Z7D3 25-259)
T2 construct: also called Penta-O8E; Penta-B7H4-C9; not shown: 'Penta' part and C-9 tag
T2 sequence: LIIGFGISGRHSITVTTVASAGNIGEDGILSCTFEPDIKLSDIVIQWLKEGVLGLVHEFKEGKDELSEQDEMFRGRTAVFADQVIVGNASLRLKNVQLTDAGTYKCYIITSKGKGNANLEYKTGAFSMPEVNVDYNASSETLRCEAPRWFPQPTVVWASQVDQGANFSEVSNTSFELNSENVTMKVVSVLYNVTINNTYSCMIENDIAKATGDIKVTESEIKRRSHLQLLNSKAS

B1: 13D12 human monoclonal antibody (anti-O8E / anti-B7-H4) (antibody, V domains shown)
VH: QVQLQQWGAGLLKPSETLSLTCAVYGGSFSGYYWSWIRQPPGKGLEWIGKINHSGSTNYNPSLKSRVTISVDTSKNQFSLKLNSVTAADTAVYYCARELRYFENYYYGMDVWGQGTTVTVSS
VL: not shown
notes: Hybridoma-derived fully human IgG with a kappa light chain (VK A27); also called 13D12.G10
B2: 1G11 human monoclonal antibody (anti-O8E / anti-B7-H4) (antibody, V domains shown)
VH: QVQLQQWGAGLLKPSETLSLTCAVYGGSFSDYFWTWIRQPPGKGLEWIGEINHSGTTNYNPSLKSRVTISADTSKNQFSLRLSSVTAADTAVYYCARLSSWSNWAFEYWGQGTLVTVSS
VL: EIVLTQFPGTLSLSPGERATLSCRASQSVSSTYLAWYQQKPGQAPRVLIYGASRRATGIPDRFSGSGSGTDFTLTISRLEPEDFAVYYCQQYGSSPLTFGGGTKVEIK
notes: Hybridoma-derived fully human IgG with a kappa light chain (VK A27); also called 1G11.H11-FITC; 1G11.H1
B3: 12E1 human monoclonal antibody (anti-O8E / anti-B7-H4) (antibody, V domains shown)
VH: EVQLVESGGGLVQPGRSLRLSCVASGFTFDDYAMHWVRQAPGKGLEWVSGISWNSGSIGYADSVKGRFTISRDNAKNSLYLQMNSLRAEDTALYYCTKALYGSGSSDFYYYGMDVWGQGTTVAVSS
VL: EIVLTQSPATLSLSPGERATLSCRASQSVSSYLAWYQQKPGQAPRLLIYDASNRATGIPARFSGSGSGTDFTLTISSLEPEDFAVYYCQQRRTFGQGTKVEIK
notes: Hybridoma-derived fully human IgG with a kappa light chain (VK L6/JK1); also called 12E1.G9

How the values were obtained:
[1] = target: T1, human O8E (B7-H4) expressed on cells; test: titration of labelled antibody on O8E-transfected cells (Scatchard set-up), sigmoidal dose response fit
Procedure: HEK cells were transfected with full length O8E using standard techniques and grown in RPMI media containing 10% fetal bovine serum (FBS). […] Millipore plates (MAFB NOB) were coated with 1% nonfat dry milk in water and stored a 4° C. overnight. The plates were washed three times with 0.2 ml of binding buffer. Fifty microliters of buffer alone was added to the maximum binding wells (total binding). Twenty-five microliters of buffer alone was added to the control wells (non-specific binding). Varying concentration of ¹²⁵I-anti-O8E antibody was added to all wells in a volume of 25 μl. (In some cases FITC labeled antibodies were used for the titration since unlabeled material was not available, binding may be compromised in these instances.) Varying concentrations of unlabeled antibody at 100 fold excess was added in a volume of 25 μl to control wells and 25 μl of O8E transfected CHO cells (2×10⁶ cells/ml) in binding buffer were added to all wells. The plates were incubated for 2 hours at 200 RPM on a shaker at 4° C. At the completion of the incubation the Millipore plates were washed three times with 0.2 ml of cold wash buffer (24 mM Tris pH 7.2, 500 mM NaCl, 2.7 mM KCl, 2 mM Glucose, 1 mM CaCl₂, 1 mM MgCl₂, 0.1% BSA.). The filters were removed and counted in a gamma counter. […]

[2] = target: T2, Recombinant Penta-B7H4 protein with a …; test: ELISA: anti-mouse Fc coat, monoclonal anti-C9 at 0.6 ug/ml, Penta-B7H4 titrated (varied component), human antibody fixed at 1 ug/ml
[3] = target: T1, human O8E (B7-H4) expressed on cells; test: titration of labelled antibody on O8E-transfected cells (Scatchard set-up), sigmoidal dose response fit; BOTTOM and TOP fixed for incomplete curve

| Binder | EC50 [1] [nM] | EC50 (read off the curve) [2] [µg/mL] | EC50 [3] [nM] |
| --- | --- | --- | --- |
| B1 | 0.746 | – | – |
| B2 | 1.69 | – | – |
| B3 | – | ~0.05 | ~19.8 |
